Data taken from US20170232104A1.

Legend:
[1] = target: 28mer peptide of the CXCR5 antigen; assay: antigen ELISA; 100 mg/mL formulation, +5C, 12 months
[2] = target: 28mer peptide of the CXCR5 antigen; assay: antigen ELISA; PBS 155 mM, 1 h purged with air, 24 h +40C
[3] = target: 28mer peptide of the CXCR5 antigen; assay: antigen ELISA; PBS 155 mM, light stress, 24 h +40C
[4] = target: 28mer peptide of the CXCR5 antigen; assay: antigen ELISA; 100 mg/mL formulation, +5C, initial
[5] = target: 28mer peptide of the CXCR5 antigen; assay: antigen ELISA; 100 mg/mL formulation, +25C, initial
[6] = target: 28mer peptide of the CXCR5 antigen; assay: antigen ELISA; citrate pH 6.0 prototype B, 20 mg/mL, T0
[7] = target: 28mer peptide of the CXCR5 antigen; assay: antigen ELISA; 100 mg/mL formulation, -20C, initial
[8] = target: 28mer peptide of the CXCR5 antigen; assay: antigen ELISA; 100 mg/mL formulation, +5C, 1 month
[9] = target: 28mer peptide of the CXCR5 antigen; assay: antigen ELISA; 100 mg/mL formulation, +5C, 6 months
[10] = target: 28mer peptide of the CXCR5 antigen; assay: antigen ELISA; PBS 155 mM, clear glass type I, 24 h +40C
[11] = target: 28mer peptide of the CXCR5 antigen; assay: antigen ELISA; PBS 155 mM, polypropylene, 24 h +40C
[12] = target: 28mer peptide of the CXCR5 antigen; assay: antigen ELISA; 100 mg/mL formulation, +5C, 3 months
[13] = target: 28mer peptide of the CXCR5 antigen; assay: antigen ELISA; 100 mg/mL formulation, -20C, 3 months
[14] = target: 28mer peptide of the CXCR5 antigen; assay: antigen ELISA; 100 mg/mL formulation, +5C, 9 months
[15] = target: 28mer peptide of the CXCR5 antigen; assay: antigen ELISA; 100 mg/mL formulation, +5C, 18 months
[16] = target: 28mer peptide of the CXCR5 antigen; assay: antigen ELISA; 100 mg/mL formulation, +25C, 3 months
[17] = target: 28mer peptide of the CXCR5 antigen; assay: antigen ELISA; PBS 155 mM, clear glass type I as T0, 24 h +40C
[18] = target: 28mer peptide of the CXCR5 antigen; assay: antigen ELISA; 100 mg/mL formulation, +5C, 15 months
[19] = target: 28mer peptide of the CXCR5 antigen; assay: antigen ELISA; 100 mg/mL formulation, -20C, 9 months
[20] = target: 28mer peptide of the CXCR5 antigen; assay: antigen ELISA; 100 mg/mL formulation, -20C, 12 months
[21] = target: 28mer peptide of the CXCR5 antigen; assay: antigen ELISA; acetate pH 5.5 prototype C, 20 mg/mL, T0
[22] = target: 28mer peptide of the CXCR5 antigen; assay: antigen ELISA; histidine pH 5.0 prototype A, 20 mg/mL, T0
[23] = target: 28mer peptide of the CXCR5 antigen; assay: antigen ELISA; 100 mg/mL formulation, -20C, 1 month
[24] = target: 28mer peptide of the CXCR5 antigen; assay: antigen ELISA; citrate pH 6.0 prototype C, 20 mg/mL, T0
[25] = target: 28mer peptide of the CXCR5 antigen; assay: antigen ELISA; histidine pH 5.0 prototype B (table title LA_09_029B), 20 mg/mL, T0
[26] = target: 28mer peptide of the CXCR5 antigen; assay: antigen ELISA; 100 mg/mL formulation, +25C, 1 month
[27] = target: 28mer peptide of the CXCR5 antigen; assay: antigen ELISA; 100 mg/mL formulation, +25C, 6 months
[28] = target: 28mer peptide of the CXCR5 antigen; assay: antigen ELISA; acetate pH 5.5 prototype D, 20 mg/mL, T0
[29] = target: 28mer peptide of the CXCR5 antigen; assay: antigen ELISA; 100 mg/mL formulation, -20C, 6 months
[30] = target: 28mer peptide of the CXCR5 antigen; assay: antigen ELISA; 100 mg/mL formulation, -20C, 18 months
[31] = target: 28mer peptide of the CXCR5 antigen; assay: antigen ELISA; histidine pH 5.0 prototype D, 20 mg/mL, T0

B1: Lead CXCR5 Antibody (humanized IgG4 anti-CXCR5 antibody) (antibody, V domains shown)
VH: QVQLKESGPGLVAPSESLSITCTVSGFSLIDYGVNWIRQPPGKGLEWLGVIWGDGTTYYNPSLKSRLSISKDNSKSQVFLKVTSLTTDDTAMYYCARIVYWGQGTLVTVSA
VL: DIVMTQAAPSVAVTPGASVSISCRSSKSLLHSSGKTYLYWFLQRPGQSPQLLIYRLSSLASGVPDRFSGSGSGTAFTLRISRVEAEDVGVYYCMQHLEYPYTFGGGTKLEIKR
[1]
  Potency (Antigen ELISA) EC50 value (in comparison to reference): 93%
[2]
  EC50%: 84.3%
[3]
  EC50%: 72.3%
[4]
  Potency (Antigen ELISA) EC50 value (in comparison to reference): 75%
[5]
  Potency (Antigen ELISA) EC50 value (in comparison to reference): 75%
[6]
  EC50%: 104%
[7]
  Potency (Antigen ELISA) EC50 value (in comparison to reference): 75%
[8]
  Potency (Antigen ELISA) EC50 value (in comparison to reference): 105%
[9]
  Potency (Antigen ELISA) EC50 value (in comparison to reference): 97%
[10]
  EC50%: 131%
[11]
  EC50%: 107%
[12]
  Potency (Antigen ELISA) EC50 value (in comparison to reference): 95%
[13]
  Potency (Antigen ELISA) EC50 value (in comparison to reference): 84%
[14]
  Potency (Antigen ELISA) EC50 value (in comparison to reference): 92%
[15]
  Potency (Antigen ELISA) EC50 value (in comparison to reference): 119%
[16]
  Potency (Antigen ELISA) EC50 value (in comparison to reference): 96%
[17]
  EC50%: 62.3%
[18]
  Potency (Antigen ELISA) EC50 value (in comparison to reference): 114%
[19]
  Potency (Antigen ELISA) EC50 value (in comparison to reference): 101%
[20]
  Potency (Antigen ELISA) EC50 value (in comparison to reference): 96%
[21]
  EC50%: 142%
[22]
  EC50%: 174%
[23]
  Potency (Antigen ELISA) EC50 value (in comparison to reference): 107%
[24]
  EC50%: 104%
[25]
  EC50%: 118%
[26]
  Potency (Antigen ELISA) EC50 value (in comparison to reference): 121%
[27]
  Potency (Antigen ELISA) EC50 value (in comparison to reference): 104%
[28]
  EC50%: 91%
[29]
  Potency (Antigen ELISA) EC50 value (in comparison to reference): 96%
[30]
  Potency (Antigen ELISA) EC50 value (in comparison to reference): 127%
[31]
  EC50%: 169%
